From article PMC3765947 (Current Biology, 2012)

Biological target: purified FMNL2 N terminus (FMNL2N, aa 2-379) (human (from the printed UniProt …, UniProt Q96PY5-3 2-379))
Test: ITC

Sequence of purified FMNL2 N terminus (FMNL2N, aa 2-379) (human (Q96PY5 2-379): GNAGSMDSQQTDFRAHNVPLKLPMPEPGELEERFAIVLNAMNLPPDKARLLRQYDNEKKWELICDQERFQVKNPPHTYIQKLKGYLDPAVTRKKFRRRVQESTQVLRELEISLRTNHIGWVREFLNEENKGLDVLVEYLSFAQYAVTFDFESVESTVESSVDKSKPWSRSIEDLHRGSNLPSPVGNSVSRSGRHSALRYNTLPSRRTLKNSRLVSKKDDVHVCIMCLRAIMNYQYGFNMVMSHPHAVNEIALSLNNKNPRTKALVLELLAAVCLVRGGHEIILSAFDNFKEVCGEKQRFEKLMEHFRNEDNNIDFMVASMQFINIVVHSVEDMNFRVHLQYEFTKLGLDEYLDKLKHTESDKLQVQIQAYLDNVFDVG

Kd: 3.13 ± 0.38 µM
dH: -5.33 ± 0.16 kcal/mol
B1: Cdc42 (nucleotide-loaded, for ITC) (natural protein)
chain: not shown
